Biological target: His-SUMO-tagged full-length SARS-CoV-2 nsp14 (SARS-CoV-2) (UniProt P0DTD1)
Test: MST

short SARS-CoV-2 nsp10 construct (from UniProt P0DTD1 4264-4385) (domain or fragment)
Kd: 13.9 µM

— paper doi:10.1101/2023.06.26.546492
